Tests used:
[1] = molecular target: T1, TEV protease-mobilized soluble ATD (human, UniProt Q05586 19-561, biotinylated (Sulfo-NHS-Biotin) in the titration on plate-bound 5F5); test: ELISA, ATD captured on the plate by a Myc tag antibody
T1 construct: also called mobilized ATD; plate-adherent ATD
Description: To test binding of human NR1 antibodies to plate-adherent ATD, we added 5 μg/mL Myc antibody (C3956, Sigma-Aldrich) (100 μl/well) to Black 96-well plates (12-566-24, Thermo Fisher) overnight, washed the plates 3 times with PBST, blocked with 5% inactivated fetal bovine serum and 3% Goat serum (Invitrogen) in PBST for 1 h at 37° C., washed 3 times, added 5 μg/mL ATD, and then incubated for 1 h at 37° C. and washed 3 more times. We added human mAbs, 5F5, 2G6, 1D1, and control isotype 6A at 5 μg/mL (100 μl/well), or 5 μg/mL anti-NR1 mAb (MAB 1586 RUHL, Millipore), in triplicate samples, and incubated for 1 h at 37° C. After three additional PBST washes, secondary antibodies were added, either an anti-human IgG HRP conjugate (9040-05 Southern Biotech, Birmingham, Ala.) or anti-mouse IgG HRP conjugate (1010-05, Southern Biotech), at 1:2000 and incubated for 1 h at 37° C., followed by 3 washes. Super Signal ELISA Femto Substrate was used for detection. Data was collected in the Biotek SYNERGY II Microplate reader and analyzed with Microsoft Excel.

[2] = molecular target: T2, NR1 ATD fusion protein on 293T-ATD cells (human); test: flow cytometry on 293T-ATD cells, co-stained with commercial anti-NR1 mAb
T2 construct: also called HEK293T-ATD; GluN1-ATD fused to the PDGF receptor transmembrane domain
T2 sequence (chain, as listed by the source limits assumed): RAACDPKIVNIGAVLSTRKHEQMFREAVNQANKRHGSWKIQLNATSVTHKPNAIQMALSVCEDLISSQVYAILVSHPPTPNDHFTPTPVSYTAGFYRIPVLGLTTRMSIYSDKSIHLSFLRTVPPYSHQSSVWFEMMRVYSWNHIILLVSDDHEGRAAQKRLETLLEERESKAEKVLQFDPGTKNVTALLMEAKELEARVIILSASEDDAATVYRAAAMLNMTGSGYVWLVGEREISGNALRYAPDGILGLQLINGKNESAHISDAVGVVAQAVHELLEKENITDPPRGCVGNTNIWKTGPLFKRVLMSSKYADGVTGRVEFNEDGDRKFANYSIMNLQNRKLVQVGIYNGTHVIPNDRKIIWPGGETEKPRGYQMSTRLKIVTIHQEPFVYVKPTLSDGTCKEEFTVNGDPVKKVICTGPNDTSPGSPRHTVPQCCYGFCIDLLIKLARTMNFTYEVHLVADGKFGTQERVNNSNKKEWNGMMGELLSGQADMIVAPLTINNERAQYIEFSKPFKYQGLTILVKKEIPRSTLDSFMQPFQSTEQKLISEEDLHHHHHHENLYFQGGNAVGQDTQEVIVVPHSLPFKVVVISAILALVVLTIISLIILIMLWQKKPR
Description: Primary antibodies included the BIOORBYT APC-labeled NR1 mAb at 10 μg/mL, an ALEXA FLUOR 488 labeled Myc tag mAb at 2 μg/mL (16-308, Millipore, Billerica, Mass.) three human IgG mAbs (5 μg/mL) isolated from a patient with ANRE (5F5, 2G6, 1D1) and the 6A isotype control mAb¹⁴. As a secondary antibody for the human mAbs, we used a FITC-conjugated F(ab′)2 goat anti-human IgG (109-096-008, Jackson ImmunoResearch, West Grove, Pa.). Cells were assayed with a BD FACSCANTO II (Becton Dickson, Franklin Lakes, N.J.). Data were analyzed using FLOWJO 8.8.7. Software (Tree Star, Ashland, Oreg.).

T1 sequence (Q05586 other isoform, or with tags, fused parts or gaps): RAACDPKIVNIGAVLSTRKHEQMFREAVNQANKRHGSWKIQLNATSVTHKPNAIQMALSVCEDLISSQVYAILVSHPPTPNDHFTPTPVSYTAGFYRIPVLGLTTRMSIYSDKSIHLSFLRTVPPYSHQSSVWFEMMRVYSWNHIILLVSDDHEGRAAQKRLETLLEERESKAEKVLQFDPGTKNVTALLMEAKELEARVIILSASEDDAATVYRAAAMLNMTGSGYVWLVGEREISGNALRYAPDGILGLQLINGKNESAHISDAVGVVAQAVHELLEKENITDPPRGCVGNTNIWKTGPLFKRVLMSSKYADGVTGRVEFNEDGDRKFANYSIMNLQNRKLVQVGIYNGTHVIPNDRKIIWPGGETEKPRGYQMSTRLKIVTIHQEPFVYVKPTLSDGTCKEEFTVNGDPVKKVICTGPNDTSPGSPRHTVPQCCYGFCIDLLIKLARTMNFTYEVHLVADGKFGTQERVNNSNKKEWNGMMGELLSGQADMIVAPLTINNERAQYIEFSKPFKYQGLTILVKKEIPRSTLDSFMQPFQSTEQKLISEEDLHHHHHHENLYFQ

B1: mAb 5F5 (antibody, V domains shown)
VH: QVQLVESGGGVVRPGGSLRLSCAASGFTFSTYSLHWVRQAPGKGLEWVGVILYDGSKKYYADSVRGRFTISRDNSKSTLNLDMSSLRPDDTAVYYCARDPIAVAPRPSGMVPQGFDYWGQGTLVTVSS
VL: QSVVTQPPSASGTPGQRVTISCSGSSSNIGRNFVFWYRQLPGTAPKVLIYKNIQRPSGVPDRISGSRSGSSASLAISGLRSEDEADYYCASWDDSLSGVVFGGGTKLTVL
notes: Biotinylated or CypHer5E-labelled in some assays; also called SFS; 5G5
binding result [1]: binds
Percent GluN1 positive 293T-ATD cells bound [2]: 90.5%
double positive cells [2]: 62.3%

B2: mAb 2G6 (antibody, V domains shown)
VH: QVQLQESGGGVVQPGRSLRLSCAASGFSFNAFAMHWVRQAPGKGLEWVARISHYGSDDYYADSVKGRFTISRDNSQNTLFLQMNSLKAEDTGVYYCWRGFTLVRGVISRNPINRFSGMDVWGQGTTVTVS
VL: SYELMQPPSVSVSPGQTARITCSGDALPKKYAYWYQQKSGQAPILVIYEDNKRPSGIPERFSGSSSGTMATLTISGAQVEDEADYFCYSTDSSGNHGVFGGGTKLTVL
notes: Human IgG lambda mAb from a hybridoma of an ANRE patient; Biotinylated or CypHer5E-labelled in some assays; also called 2C6; 2G6-biotin
binding result [1]: binds
Percent GluN1 positive 293T-ATD cells bound [2]: 58.8%
double positive cells [2]: 40.5%

B3: mAb 1D1 (antibody, V domains shown)
VH: LVQLVESGGGVVQSGRSLRLSCAASGFAFHTFTIHWVRQAPGKGLDWVTAIYFDGTKKYYADSVKGRFTVSRDNSKNTVYLQMNGLRGEDTAVYYCARARYSYGLSFDYWGQGTPVTVSS
VL: QSVVTQPPSVSAAPGQKVTISCSASSSYLGSNYVSWYQQLPGTAPKLLIYDNNKRSSGISDRFSGSKSGTSATLDITGLQTGDEADYYCGAWDSSLSVVVFGGGTKLTVL
notes: Human IgG mAb from an ANRE patient; also called 1G1; 1DA
binding result [1]: binds
Percent GluN1 positive 293T-ATD cells bound [2]: 53.7%
double positive cells [2]: 37%
